The source of these data is publication PMC5624926 (2017).

Assay [1] deals with T1, CD22_(20–687) (human, UniProt P20273 20-687, N-linked glycans; glycoform not stated). As to the kind of experiment: BLI. For orientation: In BLI a coated tip is dipped into the sample, and binding shifts an interference pattern.
The target of assay [2] is T1, CD22_(20–687). Briefly: BLI. This is another data set of the same source.

Where two headings read alike, the source gives them in different places.

B1: epratuzumab Y(L27D)A (antibody, V domains shown)
VH: QVQLVQSGAEVKKPGSSVKVSCKASGYTFTSYWLHWVRQAPGQGLEWIGYINPRNDYTEYNQNFKDKATITADESTNTAYMELSSLRSEDTAFYFCARRDITTFYWGQGTTVTVSS
VL: DIQLTQSPSSLSASVGDRVTMSCKSSQSVLASANHKNYLAWYQQKPGKAPKLLIYWASTRESGVPSRFSGSGSGTDFTLTISSLQPEDIATYYCHQYLSSWTFGGGTKLEIKR
In the case of B1, binding in assay [1] was characterised by a dissociation constant (Kd) of 1700 nM.

B2: epratuzumab Fab (Fab, V domains shown)
VH: QVQLVQSGAEVKKPGSSVKVSCKASGYTFTSYWLHWVRQAPGQGLEWIGYINPRNDYTEYNQNFKDKATITADESTNTAYMELSSLRSEDTAFYFCARRDITTFYWGQGTTVTVSS
VL: DIQLTQSPSSLSASVGDRVTMSCKSSQSVLYSANHKNYLAWYQQKPGKAPKLLIYWASTRESGVPSRFSGSGSGTDFTLTISSLQPEDIATYYCHQYLSSWTFGGGTKLEIK
B2: the Kd (as a rule, the free concentration of one partner at which half of the binding sites on the other are occupied at equilibrium, for simple one-to-one binding) in assay [2] turned out to be 120 nM.

B3: epratuzumab N(H52)A (antibody, V domains shown)
VH: QVQLVQSGAEVKKPGSSVKVSCKASGYTFTSYWLHWVRQAPGQGLEWIGYIAPRNDYTEYNQNFKDKATITADESTNTAYMELSSLRSEDTAFYFCARRDITTFYWGQGTTVTVSS
VL: DIQLTQSPSSLSASVGDRVTMSCKSSQSVLYSANHKNYLAWYQQKPGKAPKLLIYWASTRESGVPSRFSGSGSGTDFTLTISSLQPEDIATYYCHQYLSSWTFGGGTKLEIKR
B3 had a dissociation constant Kd in assay [1] of 260 nM.
